Assay results as given in paper PMC5504686 (Molecular genetics and metabolism, 2017).

Columns and labels:
crystal structure = molecular target: the molecule itself; test: crystal structure
[1] = molecular target: T1, alpha subunit of mature G172D Flavobacterium glycosylasparaginase (Flavobacterium, UniProt Q47898 46-196); test: crystal structure
T1 sequence (looked up): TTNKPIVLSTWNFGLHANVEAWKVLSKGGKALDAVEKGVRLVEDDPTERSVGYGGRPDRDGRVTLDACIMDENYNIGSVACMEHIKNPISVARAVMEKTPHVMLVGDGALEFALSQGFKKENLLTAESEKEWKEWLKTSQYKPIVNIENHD

Row | Binder | binding result (crystal structure) | binding result [1]
1 | mature form of the G172D mutant of Flavobacterium glycosylasparaginase (one alpha and one beta chain) (complex) chain 1: TTNKPIVLSTWNFGLHANVEAWKVLSKGGKALDAVEKGVRLVEDDPTERSVGYGGRPDRDGRVTLDACIMDENYNIGSVACMEHIKNPISVARAVMEKTPHVMLVGDGALEFALSQGFKKENLLTAESEKEWKEWLKTSQYKPIVNIENHD chain 2: TIGMIALDAQGNLSGACTTSDMAYKMHGRVGDSPIIGAGLFVDNEIGAATATGHGEEVIRTVGTHLVVELMNQGRTPQQACKEAVERIVKIVNRRGKNLKDIQVGFIALNKKGEYGAYCIQDGFNFAVHDQKGNRLETPGFALK | binds | –
2 | beta subunit of mature G172D Flavobacterium glycosylasparaginase (domain or fragment, UniProt Q47898 197-340, looked up) TIGMIALDAQGNLSGACTTSDMAYKMHGRVGDSPIIGAGLFVDNEIGAATATGHGEEVIRTVGTHLVVELMNQGRTPQQACKEAVERIVKIVNRRGKNLKDIQVGFIALNKKGEYGAYCIQDGFNFAVHDQKGNRLETPGFALK | – | binds
